Source: the Immune Epitope Database (IEDB)

Assays:
[1] = target: HLA-B*07:02; assay: IEDB peptide-MHC binding, purified MHC/competitive/radioactivity; filed as Kd, often an IC50 or EC50 that approximates it; ≥ and ≤ were set here for values at or beyond the usual limits of such assays
[2] = target: HLA-B*35:01; assay: as above
[3] = target: HLA-B*51:01; assay: as above
[4] = target: HLA-B*53:01; assay: as above
[5] = target: HLA-B*54:01; assay: as above
[6] = target: HLA-A*02:01; assay: IEDB peptide-MHC binding, purified MHC/direct/fluorescence; filed as Kd, often an IC50 or EC50 that approximates it; ≥ and ≤ were set here for values at or beyond the usual limits of such assays
[7] = target: HLA-A*02:03; assay: as above
[8] = target: HLA-A*02:11; assay: as above
[9] = target: HLA-A*69:01; assay: as above
[10] = target: HLA-A*11:01; assay: IEDB peptide-MHC binding, purified MHC/competitive/fluorescence; filed as Kd, often an IC50 or EC50 that approximates it; ≥ and ≤ were set here for values at or beyond the usual limits of such assays
[11] = target: HLA-A*03:01; assay: as above
[12] = target: HLA-A*31:01; assay: as above; details: source organism: Encephalitozoon cuniculi GB-M1
[13] = target: HLA-A*02:01; assay: as above
[14] = target: HLA-A*02:12; assay: as above; details: source organism: Listeria monocytogenes EGD-e
[15] = target: HLA-A*26:01; assay: as above; details: source organism: Listeria monocytogenes EGD-e
[16] = target: HLA-A*29:02; assay: as above
[17] = target: HLA-B*15:01; assay: as above; details: source organism: Listeria monocytogenes EGD-e
[18] = target: HLA-B*18:01; assay: as above
[19] = target: HLA-B*27:03; assay: as above
[20] = target: HLA-B*39:01; assay: as above
[21] = target: HLA-B*46:01; assay: as above
[22] = target: HLA-B*57:01; assay: as above
[23] = target: HLA-A*01:01; assay: IEDB peptide-MHC binding, purified MHC/direct/fluorescence; filed as Kd, often an IC50 or EC50 that approximates it; ≥ and ≤ were set here for values at or beyond the usual limits of such assays; details: source organism: Yellow fever virus
[24] = target: HLA-A*03:01; assay: as above
[25] = target: HLA-A*29:02; assay: as above; details: source organism: Yellow fever virus
[26] = target: HLA-A*31:01; assay: as above; details: source organism: Yellow fever virus
[27] = target: HLA-B*15:01; assay: as above
[28] = target: HLA-B*18:01; assay: as above; details: source organism: Yellow fever virus
[29] = target: HLA-B*27:05; assay: as above; details: source organism: Yellow fever virus
[30] = target: HLA-B*40:01; assay: as above; details: source organism: Yellow fever virus
[31] = target: HLA-B*44:02; assay: as above; details: source organism: Yellow fever virus
[32] = target: HLA-B*46:01; assay: as above; details: source organism: Yellow fever virus
[33] = target: HLA-B*48:01; assay: as above; details: source organism: Yellow fever virus
[34] = target: HLA-B*57:01; assay: as above; details: source organism: Yellow fever virus
[35] = target: HLA-B*58:01; assay: as above; details: source organism: Yellow fever virus
[36] = target: HLA-A*02:12; assay: as above; details: source organism: Pergamino virus
[37] = target: HLA-A*02:16; assay: as above; details: source organism: Pergamino virus
[38] = target: HLA-A*02:19; assay: as above; details: source organism: Pergamino virus
[39] = target: HLA-A*26:01; assay: as above; details: source organism: Orthohantavirus andesense
[40] = target: HLA-A*68:02; assay: as above; details: source organism: Pergamino virus
[41] = target: HLA-A*69:01; assay: IEDB peptide-MHC binding, purified MHC/competitive/fluorescence; filed as Kd, often an IC50 or EC50 that approximates it; ≥ and ≤ were set here for values at or beyond the usual limits of such assays; details: source organism: Lechiguanas virus
[42] = target: HLA-B*51:01; assay: as above; details: source organism: Lechiguanas virus
[43] = source organism: Vaccinia virus WR
[44] = source organism: Camelpox virus M-96
[45] = source organism: Encephalitozoon cuniculi GB-M1
[46] = source organism: Mammarenavirus guanaritoense
[47] = source organism: Listeria monocytogenes EGD-e
[48] = source organism: SARS coronavirus Tor2
[49] = source organism: Yellow fever virus
[50] = source organism: Triticum aestivum
[51] = source organism: Pergamino virus
[52] = source organism: Lechiguanas virus
[53] = source organism: Mammarenavirus brazilense

DPTFQLLNM
Kd [1, 43]: ≥ 77500 nM
Kd [2, 43]: 1130 nM
Kd [3, 43]: 3350 nM
Kd [4, 43]: 237 nM
Kd [5, 43]: ≥ 78100 nM

FLQQSIFRF
Kd [6, 44]: 154 nM
Kd ([7]; source organism: Variola virus): 747 nM
Kd ([8]; source organism: Variola virus): 2 nM
Kd [9, 44]: ≥ 20000 nM

HAGAKSFYK
Kd ([10]; source organism: Influenza A virus (A/California/04/2009(H1N1))): 5.5 nM

ILSFPYLFK
Kd [11, 45]: 2.9 nM
Kd [10, 45]: 3.8 nM
Kd [12]: ≥ 20000 nM

KPINLSNSV
Kd [1, 46]: 22.9 nM
Kd [2, 46]: 188 nM
Kd [3, 46]: 2160 nM
Kd [4, 46]: 1150 nM
Kd [5, 46]: 193 nM

LAIVTTPLV
Kd [13, 47]: 27.2 nM
Kd [14]: 144 nM
Kd [11, 47]: ≥ 20000 nM
Kd [15]: ≥ 20000 nM
Kd [16, 47]: ≥ 20000 nM
Kd [17]: ≥ 20000 nM
Kd [18, 47]: ≥ 20000 nM
Kd [19, 47]: ≥ 20000 nM
Kd [20, 47]: ≥ 20000 nM
Kd [21, 47]: ≥ 20000 nM
Kd [22, 47]: ≥ 20000 nM

MPASWVMRIM
Kd [1, 48]: 8.51 nM
Kd [2, 48]: 18.2 nM
Kd [3, 48]: 8.61 nM
Kd [4, 48]: 62.8 nM
Kd [5, 48]: 68.6 nM

NPAWRKAVFI
Kd [1, 48]: 3370 nM
Kd [2, 48]: ≥ 69900 nM
Kd [3, 48]: ≥ 41400 nM
Kd [4, 48]: ≥ 41800 nM
Kd [5, 48]: ≥ 69900 nM

PHAATIRVL
Kd [23]: ≥ 20000 nM
Kd [6, 49]: ≥ 20000 nM
Kd [24, 49]: ≥ 20000 nM
Kd [25]: ≥ 20000 nM
Kd [26]: ≥ 20000 nM
Kd [9, 49]: ≥ 20000 nM
Kd [27, 49]: ≥ 20000 nM
Kd [28]: ≥ 20000 nM
Kd [29]: ≥ 20000 nM
Kd [30]: ≥ 20000 nM
Kd [31]: ≥ 20000 nM
Kd [32]: ≥ 20000 nM
Kd [33]: ≥ 20000 nM
Kd [34]: ≥ 20000 nM
Kd [35]: ≥ 20000 nM

PPYCTIAPV
Kd [1, 50]: 206 nM
Kd [2, 50]: ≥ 21500 nM
Kd [3, 50]: ≥ 27400 nM
Kd [4, 50]: 11600 nM
Kd [5, 50]: 1080 nM

QPQEQVPL
Kd [1, 50]: ≥ 87300 nM
Kd [2, 50]: ≥ 87800 nM
Kd [3, 50]: 41 nM
Kd [4, 50]: ≥ 87700 nM
Kd [5, 50]: ≥ 43200 nM

SCINGQCPY
Kd [7, 51]: ≥ 20000 nM
Kd [8, 51]: ≥ 20000 nM
Kd [36]: ≥ 20000 nM
Kd [37]: ≥ 20000 nM
Kd [38]: ≥ 20000 nM
Kd [24, 51]: ≥ 20000 nM
Kd [39]: 2220 nM
Kd [40]: ≥ 20000 nM
Kd ([27]; source organism: Orthohantavirus andesense): 6000 nM
Kd [13, 52]: ≥ 20000 nM
Kd [41]: ≥ 20000 nM
Kd [18, 52]: ≥ 20000 nM
Kd [19, 52]: ≥ 20000 nM
Kd [20, 52]: ≥ 20000 nM
Kd [21, 52]: ≥ 20000 nM
Kd [42]: ≥ 20000 nM
Kd [22, 52]: ≥ 20000 nM

SPPIPMSRL
Kd [1, 43]: 0.766 nM
Kd [2, 43]: ≥ 53100 nM
Kd [3, 43]: 912 nM
Kd [4, 43]: 9290 nM
Kd [5, 43]: ≥ 41500 nM

SPPLISILMI
Kd [1, 43]: 1010 nM
Kd [2, 43]: ≥ 69900 nM
Kd [3, 43]: 1150 nM
Kd [4, 43]: 2220 nM
Kd [5, 43]: 7630 nM

TPTQLAETI
Kd [1, 53]: 1800 nM
Kd [2, 53]: 660 nM
Kd [3, 53]: 1420 nM
Kd [4, 53]: 183 nM
Kd [5, 53]: 15300 nM

VPANSTVLSF
Kd [1, 48]: 1710 nM
Kd [2, 48]: 355 nM
Kd [3, 48]: 3250 nM
Kd [4, 48]: 95.2 nM
Kd [5, 48]: 16900 nM

VVIPTAALQ
Kd ([16]; source organism: Escherichia coli HS): 744 nM
